Results from the supplement of paper PMC9112550, “Optimization of the antimicrobial peptide Bac7 by deep mutational scanning” (BMC Biology, 2022).

System: Escherichia coli TOP10
Assay: shrunken log2 fold change of peptide-encoding DNA abundance (4.5 h post-induction vs induction); higher = less antimicrobial activity (less host growth inhibition)
Details: time post-induction: 4.5 h; library: site-saturation at positions 5, 18, 19, 20
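Note: peptides expressed intracellularly from a pBAD plasmid library in pooled LB shake-flask culture, induced with 0.3% L-arabinose, DNA abundance read by NGS, three biological replicates, DESeq2 with apeglm shrinkage.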

Sequence	shrunken log2 fold change
RRIRNRPPRLPRPRPRPMCFPRP	-0.114
RRIRGRPPRLPRPRPRPRPKPRP	1.41
RRIRTRPPRLPRPRPRPIIAPRP	0.00466
RRIRYRPPRLPRPRPRPMCIPRP	-0.101
RRIRCRPPRLPRPRPRPWVEPRP	-0.689
RRIRRRPPRLPRPRPRPGDCPRP	0.336
RRIRGRPPRLPRPRPRPSLTPRP	0.78
RRIRYRPPRLPRPRPRPWYFPRP	-0.15
RRIRNRPPRLPRPRPRPGGSPRP	0.407
RRIRERPPRLPRPRPRPMTTPRP	-0.023
RRIRKRPPRLPRPRPRPPMDPRP	0.587
RRIRCRPPRLPRPRPRPSWWPRP	0.205
RRIRQRPPRLPRPRPRPCSWPRP	0.171
RRIRERPPRLPRPRPRPDCDPRP	-0.121
RRIRPRPPRLPRPRPRPADTPRP	0.221
RRIRSRPPRLPRPRPRPWWIPRP	0.0584
RRIRERPPRLPRPRPRPCCGPRP	-0.18
RRIRIRPPRLPRPRPRPMLMPRP	-0.515
RRIRPRPPRLPRPRPRPAYNPRP	-1.01
RRIRNRPPRLPRPRPRPIKYPRP	-0.068
RRIRIRPPRLPRPRPRPMEPPRP	-0.101
RRIRDRPPRLPRPRPRPVWFPRP	1.26

Sequence	shrunken log2 fold change
RRIRERPPRLPRPRPRPEFIPRP	-0.335
RRIRPRPPRLPRPRPRPFSYPRP	-0.192
RRIRARPPRLPRPRPRPWICPRP	-0.0278
RRIRLRPPRLPRPRPRPEHVPRP	-0.0237
RRIRVRPPRLPRPRPRPFHTPRP	-1.18
RRIRYRPPRLPRPRPRPSNGPRP	0.015
RRIRQRPPRLPRPRPRPMRGPRP	0.904
RRIRPRPPRLPRPRPRPWTNPRP	-0.0167
RRIRLRPPRLPRPRPRPAGVPRP	0.103
RRIRVRPPRLPRPRPRPNMNPRP	-0.745
RRIRSRPPRLPRPRPRPAGAPRP	0.36
RRIRWRPPRLPRPRPRPYKRPRP	-0.977
RRIRFRPPRLPRPRPRPKVYPRP	-0.382
RRIRLRPPRLPRPRPRPGRCPRP	0.341
RRIRFRPPRLPRPRPRPQHCPRP	-0.461
RRIRPRPPRLPRPRPRPASTPRP	0.11
RRIRERPPRLPRPRPRPSCLPRP	-0.484
RRIRLRPPRLPRPRPRPHQYPRP	-0.297
RRIRTRPPRLPRPRPRPSMQPRP	-0.244
RRIRERPPRLPRPRPRPHCFPRP	0.0259
RRIRHRPPRLPRPRPRPLIGPRP	-0.155
RRIRMRPPRLPRPRPRPLSSPRP	-0.0576

Sequence	shrunken log2 fold change
RRIRYRPPRLPRPRPRPPQIPRP	-0.178
RRIRIRPPRLPRPRPRPKHVPRP	-0.406
RRIRYRPPRLPRPRPRPSMNPRP	-0.863
RRIRIRPPRLPRPRPRPRHSPRP	-0.646
RRIRKRPPRLPRPRPRPGECPRP	0.381
RRIRYRPPRLPRPRPRPACAPRP	-0.236
RRIRVRPPRLPRPRPRPVKGPRP	-0.0226
RRIRNRPPRLPRPRPRPNQQPRP	-0.0748
RRIRWRPPRLPRPRPRPIKDPRP	0.211
RRIRNRPPRLPRPRPRPKQTPRP	0.317
RRIRIRPPRLPRPRPRPFHLPRP	-0.0356
RRIRARPPRLPRPRPRPCSVPRP	0.0736
RRIRYRPPRLPRPRPRPGIGPRP	-0.659
RRIRKRPPRLPRPRPRPCIPPRP	-0.0433
RRIRSRPPRLPRPRPRPYQFPRP	0.0245
RRIRFRPPRLPRPRPRPDNEPRP	-0.0688
RRIRDRPPRLPRPRPRPTLNPRP	0.171
RRIRVRPPRLPRPRPRPDMLPRP	-0.024
RRIRARPPRLPRPRPRPHGGPRP	0.301
RRIRMRPPRLPRPRPRPCNQPRP	-0.0399
RRIRKRPPRLPRPRPRPDAFPRP	0.00489
RRIRARPPRLPRPRPRPGSRPRP	0.279

Sequence	shrunken log2 fold change
RRIRFRPPRLPRPRPRPSVVPRP	-0.786
RRIRVRPPRLPRPRPRPSMVPRP	-0.475
RRIRPRPPRLPRPRPRPVYTPRP	-0.234
RRIRNRPPRLPRPRPRPAMNPRP	-0.000576
RRIRLRPPRLPRPRPRPSAWPRP	-0.0766
RRIRTRPPRLPRPRPRPFWNPRP	-0.104
RRIRKRPPRLPRPRPRPQHGPRP	0.205
RRIRMRPPRLPRPRPRPRTRPRP	1.09
RRIRLRPPRLPRPRPRPLSIPRP	-0.722
RRIRTRPPRLPRPRPRPYGEPRP	-0.074
RRIRPRPPRLPRPRPRPMIEPRP	-0.0882
RRIRSRPPRLPRPRPRPMHTPRP	-0.139
RRIRKRPPRLPRPRPRPIEVPRP	0.287
RRIRNRPPRLPRPRPRPHLYPRP	-0.22
RRIRWRPPRLPRPRPRPSNDPRP	0.391
RRIRMRPPRLPRPRPRPISFPRP	-0.496
RRIRGRPPRLPRPRPRPGVSPRP	0.889
RRIRWRPPRLPRPRPRPGSYPRP	-0.0955
RRIRVRPPRLPRPRPRPFIHPRP	-0.104
RRIRPRPPRLPRPRPRPELKPRP	0.0877
RRIRARPPRLPRPRPRPWLTPRP	0.0459
RRIRRRPPRLPRPRPRPGAVPRP	0.431

Sequence	shrunken log2 fold change
RRIRPRPPRLPRPRPRPYRKPRP	0.0208
RRIRHRPPRLPRPRPRPCFPPRP	-0.517
RRIRTRPPRLPRPRPRPGSWPRP	0.844
RRIRWRPPRLPRPRPRPSVMPRP	-0.333
RRIRNRPPRLPRPRPRPMMMPRP	-0.0535
RRIRTRPPRLPRPRPRPVHMPRP	-0.123
RRIRWRPPRLPRPRPRPWDGPRP	0.00386
RRIRERPPRLPRPRPRPPKAPRP	0.312
RRIRFRPPRLPRPRPRPLFSPRP	-0.376
RRIRNRPPRLPRPRPRPNHCPRP	-0.216
RRIRKRPPRLPRPRPRPKNWPRP	0.474
RRIRMRPPRLPRPRPRPECEPRP	0.206
RRIRTRPPRLPRPRPRPQHKPRP	-0.0821
RRIRIRPPRLPRPRPRPYFTPRP	-0.702
RRIRARPPRLPRPRPRPKTLPRP	0.343
RRIRFRPPRLPRPRPRPAWAPRP	0.953
RRIRLRPPRLPRPRPRPQTYPRP	-0.371
RRIRCRPPRLPRPRPRPTFIPRP	-0.307
RRIRRRPPRLPRPRPRPMLRPRP	0.854
RRIRERPPRLPRPRPRPHKEPRP	-0.189
RRIRNRPPRLPRPRPRPWDKPRP	0.0447
